What is called stoichiometry N is a count of units in the complex or per binding partner.

What all share (test): SEC-MALS
(Size exclusion chromatography separates by hydrodynamic size, large species first.)

Assay [1] addresses cMyBP-C C3C6 domains, R820Q variant (human) (UniProt Q14896).
Assay [2] has as its target cMyBP-C C3C6 domains, E542Q variant (human) (UniProt Q14896).
For assay [3], the target named is cMyBP-C C3C6 domains, N755K variant (human) (UniProt Q14896).

Turning to “cMyBP-C C3C6 domains, R820Q variant (from UniProt Q14896 1-1274) (domain or fragment)”, the stoichiometry N in assay [1] was 2.

In assay [2], “cMyBP-C C3C6 domains, E542Q variant (from UniProt Q14896 1-1274) (domain or fragment)” yielded a stoichiometry N of 2.

“cMyBP-C C3C6 domains, N755K variant (from UniProt Q14896 1-1274) (domain or fragment)”: the stoichiometry N in assay [3] stood at 2.

These data come from PMC10772716.
